# Test: soluble fraction after stress (log2 fold change); higher = more stays soluble; pooled small domains, quantitative proteomics
# Conditions: stress: 75 degC
# 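Also: 20 min heating vs room temperature control held 20 min.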
row,Sequence,soluble fraction (log2)
1,HMLHPLLWAVDEPTPVTVRTRPEYVPDVVRWLMQPESQREHDGVVDLRYTVTHRAAFRSRIYVLGTRVTIP,0.114
2,HMLIADADSLRKQIETVLANAPNEVAAYRGGKETLMGWFVGQIMRATGGKADPKLTREILAELLQ,-0.00264
3,HMLIADSDALRSQIESILNGNPNEVASFRAGKESLMGWFVGQVMRSTGGKADPKRTRELLQELLTK,-0.0249
4,HMLIDSEILKKTNKITIFLIYAFFSEYLINKEKKKILIGEYIKLSKDFLTIEEVKYFNHLLDDISK,-0.131
5,HMLIDSNNYFFYKVKPKEGFYSLQKKLGVNRSEIEKHNPSLINEVLKEGMILKIPKYLLNFDLN,-1.08
6,HMLILTWNYPYEYPMMMRSFLQEIGISRTFLAHIKSNGELLINGRHEIVLKTLQPGDVLTMVIPPSG,-2.13
7,HMLINLGPRIRKERRSKGISQSDFSKNLGISASYLNLLENGRRTLTVPLLIKIGNELNLSLKDL,-0.125
8,HMLISAESVKRRLEMIRHLILLGDYEDVTAQVIKLNPAANEYKLTPIIEELNGGKYQEALEKINSYLSKF,-0.839
9,HMLISKNLLGFTIKNTSGVTFGTLKDIMWLPSNDVYVIDNNGKEYLIPVISEIVKSINYDKGSITIFP,-0.4
10,HMLKASEVLPYVFTDKFFIDDLNLKQDQILGFLEYIDSKLPSQKLLQVSQQFQLIDFLINESKNYKNQ,-1.68
11,HMLKDININVTGLDQISNAKLINNLNLLKMNNLFFLDEKKIKKILNSNNLIEKFFIFKKYPSTLDIKVYKT,0.177
12,HMLKHNLLSELSRIEGVGAVKRKALMDKFGTVENIKRASEEELSEVAGIGPTLARTIKEQMNKDE,-0.133
13,HMLKKRKPMSGVGVIVKGMLTGTVTGTDGSYALKARPNDELSFSFLGYKTQEVFVGSKSTIDITLVDEA,-0.111
14,HMLKLEEIQPNATVRGILPDALITVVNVKWFGSEALELTYKDTSGRVANQLLFRDDQPRLEIVE,-1.98
15,HMLKLEPYTINEINSLQELYDLGNVRALETLISIYKDKNQVYDTRFYVLDILSKYDNPLIQEALEESITN,-1.39
16,HMLKLPVEYLNLKYQLMHATSLDKPNNLMKLDEKLGKIIDVYYDDLPVDEQRVVDILQSKLYSY,-0.489
17,HMLKLYILTDGKNYVMDDPIHPGRVMYSTSPVNAKKFTFKQARALLNNKSKKLSWIRSFNMVDDSSGEKI,-1.44
18,HMLKREDEVIVVAGKDKGKRGTITQLVGDDRVIVAGVNMVKRHTKPNPNLGQPGGIVEREASLHISNV,0.244
19,HMLKVHPRDQEENRLLLLKGERLYEESTGDTRVMIDMWLRKFEEALNSRSRENIEDARRELKEQLAELDN,-0.185
20,HMLLAPLRLGAAPDIKAQAPLATILARHNGEMEAKDLWQRFGGEIDAFYLQLKTEVAHGWIVEPEPA,-3.01
21,HMLLELINLQVKILENEELKIIGKVIDLENEKNNLLVIELLKDQKKVLVPFVKEIVPLIDIKNNFIMINPP,-0.903
22,HMLLFNVADIVKRAKRVLNFKTDAELAAYLGVSRPTLSNWIARNGIDFPLLLEKLKEIDYNWLLVGKGKPE,-2.74
23,HMLLGPDALTNRELDVLALLERRLSNKEIGALLYISPRTVKRHTINIYQKLHVNNRRAAVAQAKALGLMPD,-1.9
24,HMLLKIRPDLDGNEIMKLLNIAAGPNVGKAYEHLLELRLEHGPLGKERAEQELMNWWSARSQ,-0.898
25,HMLLNSLIDTLAAEKATVVPGTEVFKLYDTYGFPWELTEEIASERGFTIDHEGFEAAMKEQRERAREARV,-0.104
26,HMLLNTSQLKELYNRYDKKNSSLISIPFSAISDEPLKFYKWYAALFQIELNVKAFADVDSKQIIIYKGTK,-3.37

row,Sequence,soluble fraction (log2)
1,HMLLRSEDAIELGKSQLEDALAPYKIETLDTGTVQQLLDSLKLNSLESLYQEIGLGNRMSTIIAHRLLGE,-0.216
2,HMLLSFYGTYGNVKLTGKELEDLQKEFPFDYQARIDRLSAYMESSGRKYHSHFATIRSWAQDDAKKN,-2
3,HMLLSYDIAEYIEKYIHEHGLQPGDRLPTERELAAQLDITRVSVRQGYKRLLDQGVIRSENGYYVNPPR,-1.68
4,HMLLTDGLERRIDGDKNLHIRISLPMLVKGQIKLAKSGNNESTVKGIFKIESYPGSHPRDVVTEIIEG,-0.236
5,HMLLTHPKRVFTYELIMELVWNEDYTFYSKKAVSNHMSNLRKKLKVTPDALDYIKNIVGVGYKFEA,-1.11
6,HMLMKKTITHEIELLEFLKQIFPQSSTNKLRKMLSNGRIKINSEIVHKAKYKLQENDTFELLDNPT,-2.61
7,HMLNEIMDTINKYISDKRNNKVAQNILSAALDELNSQIRVGLKDLNPHSIEEFKENVINSPYIEFEQG,-0.0112
8,HMLNEWIDYIDEHIKEELTAKNLATVFGYSERHFRNVFQIYYDIKLNDYIRRRKLYFAAQELKKG,-1.27
9,HMLNMSVYDKQLLRAVENNPFISQRELARELHWNVDRVKYYMKKWKDKGGLRHVGSSHKGYWEVLVRIEEK,-0.891
10,HMLNNVDIHKLSEDLLLYKIKIDIKLKNIEDAISTIDYFSNKFPNSDLMPYVIYEKKLIDNI,-2.59
11,HMLNPLLLPFVEAEDFQVKLEILAAMEGKVGEEDLDILYEALDLPKMTGNIEEQIHSIKQYIEMRK,-1.18
12,HMLNPVEKLLLLSQLYIGRLKGSFVVKEKHHKSTILGEVRELSPEEITLKTDEGYRLIRVDDILTIQL,-4.44
13,HMLNSLDATQRLKLNKDGVVVFNFGKYVDQSVIDIFKKEKGYYNWMMSKDFSQQVKNIITKIYQEEIIG,-1.08
14,HMLNTLGADIRALRKARGLTLAELAQTLGRSVGWLSQVERDMSEPGINDLRDLARALDVSISSLFG,-1.8
15,HMLNWINSDVLERFNSLTKEKQKAIVADTETRLNGLSQARFKVAKSSSNERLIAEFAIEINEAIMRAAAL,-2.11
16,HMLPADETEARVLNVLGSEPLHVDEIRNQADLPIEKISATLAMMELKGMVRQVGGMNYVAMR,0.0378
17,HMLPANGEAIYHYLASGAIKGVGPVTAQRIVDKFGEDTFDVLENNPLWLAEIKGITRKTAENIGAAFAAQF,0.631
18,HMLPDAESFSYEVPYTKGDGGTYNYEGKIKAQNADAARDEIIRQAQVYFQMNPQFTPDYPSTTITSLD,0.14
19,HMLPDDDMLLNILTKLLIDKQFVINSHEIFDFIIKRANRSYEEMFILVNKLDQLSLEKKRQLTIPLIKEI,-0.881
20,HMLPDLQESIDELLNIVDQRLNTSFEELVSGVNTTEKAIAFFLALLETIKWGFIKAEQTNNENKINIEKNY,-0.146
21,HMLPDPIYEAFMMASDLGIVVRNGPQYAYPDKETGEVLYKALGREKFLQLMKDNDGLLTSIETEIRSM,-1.61
22,HMLPKTVTLIDPVSGVAKTVTWVPALTLYSARRKAGLNRVPNTATIDRGGRELTGKRGSTLQPGDVVRW,-0.664
23,HMLPPLGDQELELLRFITESAPITVREAAESYGKDRGLARTTVLTMMERLRAKGYLTRSESGAANEYSP,-0.64
24,HMLPPVFLTIDANENVIVRKDGEPVQTLNKFELGAFARSQAENSAEQPVVLAADKSIKYEVVMEVI,0.192
25,HMLPRLVLSPGTEVLATVMGKYENGMSLVKISSHLFAMDLPSRVQVGDSLRMTFLHQDARPTFALA,-1.11
26,HMLPSDLDEGNRRRQLIEGAARLFRAKGFDGTSTRDIAAAAGMRSGSPFYHFDSKNALLYVVVQEGM,-0.0127

row,Sequence,soluble fraction (log2)
1,HMLPSWLPTDAWEAFLEARVAMKARPTERAKGLLLGELSKLVSQGQDARAVLEQSVQRGWRGLFPVK,-1.76
2,HMLPSWPGVSEFEVARLLRRGRARGSLTLDEVIDVVRDAELTSELIAGIRSSLRAEGIDFEET,-0.731
3,HMLPTLSLSVKIYKGEGDIALDLEEMVKAFDQLNFGSYPFSEKGVHGTNIVIRGNDKKHMEEAEDKVRSLT,-0.438
4,HMLPVDALFAQHPALIVTLGQTEKLKHGAAIRDWHFADGTYRVYSETGEFLLLGTVKGQILTTVKSFFE,-2.24
5,HMLQARKFTHIQGYEFEAEFLRTNGEFVELQDPQGRKKWFPISNFIQDDKDFIKEQAGNLSS,-0.309
6,HMLQEFTLELATAVVQEFRDQPGALINALHKLQETFGYVDEAAMPVLARLFNLSRAEVHGVASFYHDFRRS,-1.67
7,HMLQEHVLEIRHPSWNDAFRIIGHDGWRTQTGAHAAILSYDEEELNIKWDSWGYERFIRDEKGIFRLAA,-0.11
8,HMLQESDPEALRGIVKSVLVDHAAVAEEYRAGKQSVLQFLVGQGMKASKGAGNPGLIRDLMLEEL,-0.237
9,HMLQLSDAISRVESFLQGQNRNLAFSIDENTERSVVTVLDSDTGDVIRQIPSEELLVLAKRIQELQQD,-0.0104
10,HMLQMSDSSALEAILDEVLGSEMGQKALSDIEAGNMKAMGFIIGQSMKLSKGQANPQIINKLLQQRLK,-0.326
11,HMLQNLGFKPDLEIRHFPGIVLPDIHRSKKTISLLYTLLAGDIKKLPENEINYKDSKIISSYLWTLLRYH,0.103
12,HMLQSGSDYLIEQVRMYTATGQREYMDNYFEELNTTRRRENALEYFAEHYGDNDAFTLLKSAMTTSQN,-0.258
13,HMLQVRRILQLLADGYSKRQISQQTAVSRNTIDSYEDRFHLTGKSYQELLSMEDGELSGIVYP,-1.11
14,HMLQVSDENFVVELVQKVLLDNPSSVQEYKNGKESVLQFLIGQAMKASKGTANPQIVKEIMLKLL,-0.68
15,HMLQYSQEIEEAQKILQNLGLYKGEIDGINGVNTKSAIKEFQRKSGLIIDGILGPNTTSALSKGAESYITV,0.0721
16,HMLRISEEVWALVEKTLREDWSPEQVSGKLKASGISVSHERIYQHIYADKRVGGTLWTHLRR,-2.47
17,HMLRLLEIIAGNEVSKEINSQVIKYYKALKNKKIEEINNLTPSYNKLIISFDLKKKNFREMKKIIEDISIN,-0.136
18,HMLRPEEMIYHEMLDAILDRRLEPGMKLVEEDLAKTFGVSRARIRATFLQLAHDKLINLVPNRGAFVAEP,-2
19,HMLRRNQVQSQVIPRENGSYVVELQLRDDVDSILRLELTAATEAMARDLADRFRQDPEGVYTRLLSALY,-2.22
20,HMLRTEYLTVNYAKASEVAELVTASGFLSSRGSITVDERTNTLLLQDTATNIDEVRFMLEQLD,-0.366
21,HMLSADLLDKIQRIDSLEQQGKYAQAEKEARALLSDPSITPSERASVQNILSSIARKKAAQAQ,-0.064
22,HMLSAGTTEQRLAMLQYQWEKQSETYSALGPNNGVVTLGQIRNTMAKIAELAGFKDAAQFWMPVPMDYDV,-0.217
23,HMLSAPMPGTVLEVHVKEGQRVREGQTLVVMEAMKMEHRVQAPRAGVVTKLHYSEGDRVDVGAILVEIG,-1.34
24,HMLSAQEIPVEDIATRDFVLAEDVVSAKKVLLLPKGVDLSWFGSAKKRLVQRLKSEGVTHIRVFA,-2.06

# Reference: the domain aggregation screens of Martell et al. (2025)
